Measurements reported in IntAct's records for PubMed 20385816.

Target: slac1_arath SLAC1 (UniProt Q9LD83)
Sequence (Q9LD83 whole entry): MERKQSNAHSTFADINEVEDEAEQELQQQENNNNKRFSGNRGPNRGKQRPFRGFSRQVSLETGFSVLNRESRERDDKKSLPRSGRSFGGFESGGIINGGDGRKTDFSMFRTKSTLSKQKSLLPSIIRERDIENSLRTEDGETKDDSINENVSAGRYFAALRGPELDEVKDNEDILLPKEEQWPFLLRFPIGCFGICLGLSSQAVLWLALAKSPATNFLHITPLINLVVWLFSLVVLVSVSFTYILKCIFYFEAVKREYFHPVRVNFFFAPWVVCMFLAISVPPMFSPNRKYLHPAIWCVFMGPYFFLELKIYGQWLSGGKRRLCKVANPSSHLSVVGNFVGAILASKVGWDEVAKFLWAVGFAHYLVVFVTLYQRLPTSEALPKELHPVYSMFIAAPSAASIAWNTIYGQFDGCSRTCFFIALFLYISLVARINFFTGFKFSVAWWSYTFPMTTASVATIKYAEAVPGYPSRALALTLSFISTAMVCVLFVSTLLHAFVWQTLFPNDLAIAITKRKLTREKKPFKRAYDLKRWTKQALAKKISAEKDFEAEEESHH

Chain of Calcium-dependent protein kinase 23 (Arabidopsis thaliana (Mouse-ear cress)), Q9M101 D193A (Q9M101 whole entry D193A): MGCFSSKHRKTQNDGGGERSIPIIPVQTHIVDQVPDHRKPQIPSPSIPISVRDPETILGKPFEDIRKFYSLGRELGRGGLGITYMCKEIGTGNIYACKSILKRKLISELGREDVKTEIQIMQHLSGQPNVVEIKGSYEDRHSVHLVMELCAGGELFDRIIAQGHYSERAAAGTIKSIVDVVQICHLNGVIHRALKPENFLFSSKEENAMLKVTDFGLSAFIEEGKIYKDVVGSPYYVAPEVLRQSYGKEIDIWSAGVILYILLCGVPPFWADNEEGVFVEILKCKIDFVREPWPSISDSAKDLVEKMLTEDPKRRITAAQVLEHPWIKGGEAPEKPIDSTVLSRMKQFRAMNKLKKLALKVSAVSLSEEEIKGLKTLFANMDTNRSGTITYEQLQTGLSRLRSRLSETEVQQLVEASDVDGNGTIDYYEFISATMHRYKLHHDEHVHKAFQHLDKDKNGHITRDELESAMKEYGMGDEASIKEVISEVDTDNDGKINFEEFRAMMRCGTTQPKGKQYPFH

Calcium-dependent protein kinase 23 (Arabidopsis thaliana (Mouse-ear cress)), Q9M101 D193A
effect of a mutation on the interaction: disrupting interaction
